In the Human Domainome abundance scans (Beltran et al. 2025):
± gives the uncertainty stated by the source.

B1: Transcriptional regulator ERG, residues 117 to 197; numbered along this chain, P11308 (parent)
chain: NMTTNERRVIVPADPTLWSTDHVRQWLEWAVKEYGLPDVNILLFQNIDGKELCKMTKDDFQRLTPSYNADILLSHLHYLRE

Variants of: B1
Test: abundance fitness (aPCA) (normalised: wild type 0, dead -1); higher = more abundant; growth selection in yeast, the domain comes from the species named
Settings: Homo sapiens

Variant | abundance fitness
NMTTNERRVFVPADPTLWSTDHVRQWLEWAVKEYGLPDVNILLFQNIDGKELCKMTKDDFQRLTPSYNADILLSHLHYLRE | -0.06 ± 0.077
NMTTNERRVGVPADPTLWSTDHVRQWLEWAVKEYGLPDVNILLFQNIDGKELCKMTKDDFQRLTPSYNADILLSHLHYLRE | 0.227 ± 0.03
NMTTNERRVYVPADPTLWSTDHVRQWLEWAVKEYGLPDVNILLFQNIDGKELCKMTKDDFQRLTPSYNADILLSHLHYLRE | -0.013 ± 0.1
NMTTNERRVSVPADPTLWSTDHVRQWLEWAVKEYGLPDVNILLFQNIDGKELCKMTKDDFQRLTPSYNADILLSHLHYLRE | 0.116 ± 0.046
NMTTNERRVTVPADPTLWSTDHVRQWLEWAVKEYGLPDVNILLFQNIDGKELCKMTKDDFQRLTPSYNADILLSHLHYLRE | 0.264 ± 0.062
NMTTNERRVDVPADPTLWSTDHVRQWLEWAVKEYGLPDVNILLFQNIDGKELCKMTKDDFQRLTPSYNADILLSHLHYLRE | 0.328 ± 0.066
NMTTNERRVMVPADPTLWSTDHVRQWLEWAVKEYGLPDVNILLFQNIDGKELCKMTKDDFQRLTPSYNADILLSHLHYLRE | 0.038 ± 0.053
NMTTNERRVLVPADPTLWSTDHVRQWLEWAVKEYGLPDVNILLFQNIDGKELCKMTKDDFQRLTPSYNADILLSHLHYLRE | -0.058 ± 0.047
NMTTNERRVKVPADPTLWSTDHVRQWLEWAVKEYGLPDVNILLFQNIDGKELCKMTKDDFQRLTPSYNADILLSHLHYLRE | 0.109 ± 0.055
NMTTNERRVEVPADPTLWSTDHVRQWLEWAVKEYGLPDVNILLFQNIDGKELCKMTKDDFQRLTPSYNADILLSHLHYLRE | 0.21 ± 0.043
NMTTNERRVAVPADPTLWSTDHVRQWLEWAVKEYGLPDVNILLFQNIDGKELCKMTKDDFQRLTPSYNADILLSHLHYLRE | 0.124 ± 0.039
NMTTNERRVQVPADPTLWSTDHVRQWLEWAVKEYGLPDVNILLFQNIDGKELCKMTKDDFQRLTPSYNADILLSHLHYLRE | 0.129 ± 0.056
NMTTNERRVRVPADPTLWSTDHVRQWLEWAVKEYGLPDVNILLFQNIDGKELCKMTKDDFQRLTPSYNADILLSHLHYLRE | 0.093 ± 0.035
NMTTNERRVVVPADPTLWSTDHVRQWLEWAVKEYGLPDVNILLFQNIDGKELCKMTKDDFQRLTPSYNADILLSHLHYLRE | 0.03 ± 0.04
NMTTNERRVHVPADPTLWSTDHVRQWLEWAVKEYGLPDVNILLFQNIDGKELCKMTKDDFQRLTPSYNADILLSHLHYLRE | 0.138 ± 0.085
NMTTNERDVIVPADPTLWSTDHVRQWLEWAVKEYGLPDVNILLFQNIDGKELCKMTKDDFQRLTPSYNADILLSHLHYLRE | 0.116 ± 0.067
NMTTNERPVIVPADPTLWSTDHVRQWLEWAVKEYGLPDVNILLFQNIDGKELCKMTKDDFQRLTPSYNADILLSHLHYLRE | -0.137 ± 0.066

Variant | abundance fitness
NMTTNERVVIVPADPTLWSTDHVRQWLEWAVKEYGLPDVNILLFQNIDGKELCKMTKDDFQRLTPSYNADILLSHLHYLRE | -0.478 ± 0.083
NMTTNEREVIVPADPTLWSTDHVRQWLEWAVKEYGLPDVNILLFQNIDGKELCKMTKDDFQRLTPSYNADILLSHLHYLRE | 0.09 ± 0.068
NMTTNERSVIVPADPTLWSTDHVRQWLEWAVKEYGLPDVNILLFQNIDGKELCKMTKDDFQRLTPSYNADILLSHLHYLRE | -0.117 ± 0.052
NMTTNERWVIVPADPTLWSTDHVRQWLEWAVKEYGLPDVNILLFQNIDGKELCKMTKDDFQRLTPSYNADILLSHLHYLRE | -0.881 ± 0.19
NMTTNERMVIVPADPTLWSTDHVRQWLEWAVKEYGLPDVNILLFQNIDGKELCKMTKDDFQRLTPSYNADILLSHLHYLRE | -0.263 ± 0.083
NMTTNERCVIVPADPTLWSTDHVRQWLEWAVKEYGLPDVNILLFQNIDGKELCKMTKDDFQRLTPSYNADILLSHLHYLRE | -0.112 ± 0.08
NMTTNERLVIVPADPTLWSTDHVRQWLEWAVKEYGLPDVNILLFQNIDGKELCKMTKDDFQRLTPSYNADILLSHLHYLRE | -0.29 ± 0.054
NMTTNERIVIVPADPTLWSTDHVRQWLEWAVKEYGLPDVNILLFQNIDGKELCKMTKDDFQRLTPSYNADILLSHLHYLRE | -0.323 ± 0.077
NMTTNERAVIVPADPTLWSTDHVRQWLEWAVKEYGLPDVNILLFQNIDGKELCKMTKDDFQRLTPSYNADILLSHLHYLRE | -0.084 ± 0.056
NMTTNERKVIVPADPTLWSTDHVRQWLEWAVKEYGLPDVNILLFQNIDGKELCKMTKDDFQRLTPSYNADILLSHLHYLRE | 0.104 ± 0.064
NMTTNERFVIVPADPTLWSTDHVRQWLEWAVKEYGLPDVNILLFQNIDGKELCKMTKDDFQRLTPSYNADILLSHLHYLRE | -0.076 ± 0.068
NMTTNERNVIVPADPTLWSTDHVRQWLEWAVKEYGLPDVNILLFQNIDGKELCKMTKDDFQRLTPSYNADILLSHLHYLRE | 0.028 ± 0.064
NMTTNERTVIVPADPTLWSTDHVRQWLEWAVKEYGLPDVNILLFQNIDGKELCKMTKDDFQRLTPSYNADILLSHLHYLRE | -0.022 ± 0.053
NMTTNERHVIVPADPTLWSTDHVRQWLEWAVKEYGLPDVNILLFQNIDGKELCKMTKDDFQRLTPSYNADILLSHLHYLRE | -0.098 ± 0.073
NMTTNERYVIVPADPTLWSTDHVRQWLEWAVKEYGLPDVNILLFQNIDGKELCKMTKDDFQRLTPSYNADILLSHLHYLRE | -0.496 ± 0.11
NMTTNERGVIVPADPTLWSTDHVRQWLEWAVKEYGLPDVNILLFQNIDGKELCKMTKDDFQRLTPSYNADILLSHLHYLRE | -0.207 ± 0.067
NMTTNERQVIVPADPTLWSTDHVRQWLEWAVKEYGLPDVNILLFQNIDGKELCKMTKDDFQRLTPSYNADILLSHLHYLRE | -0.011 ± 0.063
